Earlier results in article PMC5322387.

Experiments:
[1] = biological target: E2 L2 L2 (Homo sapiens) (UniProt P10515); experiment: ITC
[2] = biological target: E2 L2 L2 (Homo sapiens) (UniProt P10515); experiment: gel filtration
[3] = biological target: E3BP L3 L3 (Homo sapiens) (UniProt O00330); experiment: ITC
Chain of E3BP L3 L3 (Homo sapiens) (O00330 56-132): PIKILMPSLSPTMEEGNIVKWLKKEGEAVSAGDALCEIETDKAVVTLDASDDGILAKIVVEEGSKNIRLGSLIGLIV

Chain of E2 L2 L2 (Homo sapiens) (P10515 218-294): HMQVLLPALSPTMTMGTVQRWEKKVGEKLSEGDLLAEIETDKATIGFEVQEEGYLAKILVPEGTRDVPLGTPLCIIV
Chain of PDK4 (Q16654 2-411): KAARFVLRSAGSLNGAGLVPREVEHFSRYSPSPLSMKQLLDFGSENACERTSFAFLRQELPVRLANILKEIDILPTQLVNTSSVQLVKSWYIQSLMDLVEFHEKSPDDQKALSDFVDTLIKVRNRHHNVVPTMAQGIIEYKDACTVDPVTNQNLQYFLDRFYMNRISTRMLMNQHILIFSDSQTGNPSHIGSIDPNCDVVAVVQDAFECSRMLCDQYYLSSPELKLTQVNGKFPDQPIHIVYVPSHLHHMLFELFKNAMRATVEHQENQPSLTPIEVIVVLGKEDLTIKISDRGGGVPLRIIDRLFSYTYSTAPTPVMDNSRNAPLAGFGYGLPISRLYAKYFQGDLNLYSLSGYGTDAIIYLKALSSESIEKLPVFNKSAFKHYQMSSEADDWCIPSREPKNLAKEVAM
Chain of PDK3 (Q15120 2-406): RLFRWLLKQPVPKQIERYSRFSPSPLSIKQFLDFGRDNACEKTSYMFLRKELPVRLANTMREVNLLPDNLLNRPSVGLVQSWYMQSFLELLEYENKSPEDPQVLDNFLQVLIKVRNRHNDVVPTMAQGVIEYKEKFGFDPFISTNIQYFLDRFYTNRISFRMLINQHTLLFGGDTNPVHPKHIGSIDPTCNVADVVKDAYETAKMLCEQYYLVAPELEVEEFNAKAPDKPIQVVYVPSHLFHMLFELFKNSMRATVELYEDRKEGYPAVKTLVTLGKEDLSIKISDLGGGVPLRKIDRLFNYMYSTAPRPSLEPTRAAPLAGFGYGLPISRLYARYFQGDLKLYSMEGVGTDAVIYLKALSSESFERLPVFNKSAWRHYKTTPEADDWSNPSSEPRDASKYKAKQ
Chain of PDK1 (Q15118 29-436): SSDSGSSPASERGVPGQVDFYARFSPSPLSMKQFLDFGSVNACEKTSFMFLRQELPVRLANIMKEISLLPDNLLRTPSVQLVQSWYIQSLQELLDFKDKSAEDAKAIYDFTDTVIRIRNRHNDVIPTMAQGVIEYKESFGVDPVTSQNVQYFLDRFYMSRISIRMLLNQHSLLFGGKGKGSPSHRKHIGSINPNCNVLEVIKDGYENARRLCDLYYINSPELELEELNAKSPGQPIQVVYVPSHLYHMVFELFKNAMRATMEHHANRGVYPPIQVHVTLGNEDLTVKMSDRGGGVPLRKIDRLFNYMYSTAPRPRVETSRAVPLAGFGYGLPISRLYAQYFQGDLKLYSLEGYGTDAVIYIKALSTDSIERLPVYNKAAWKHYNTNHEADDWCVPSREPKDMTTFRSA

In the case of PDK3 (from UniProt Q15120), the Kd [1] is listed as 1.17 µM.

For PDK1 (from UniProt Q15118), the Kd [2] is listed as 10 µM.

For PDK4 (from UniProt Q16654), the Kd [3] is listed as 5 µM.
